From patent publication US20110223127A1 (NOXXON PHARMA, published 2011)

Target: T1, human [^125J]-SDF-1α (human, UniProt P48061 22-89, 125J (iodine-125) label, position not stated)
T1 construct: Bought from PerkinElmer; also called radiolabelled human SDF-1; CXCL12
Assay: radioligand binding of human [125J]-SDF-1 to CHO cells expressing human CXCR4, scintillation counting (total binding, cpm); the blocker varied is the nucleic acid Spiegelmer 192-A10-001, preincubated with the ligand
Procedure: For binding assays CXCR4-expressing cells were seeded into polylysine-coated 24-well plates at a cell density of 1×10⁵ cells/well and cultivated overnight at 37° C. and 5% CO₂ in CHO-Ultra medium (Cambrex, Verviers, Belgium) containing 50 units/ml penicillin, 50 μg/ml streptomycin and 0.5 mg/ml geneticin.
For the binding experiment, the medium was removed and the cells were washed once with Hanks balanced salt solution, additionally containing 20 mM HEPES, 1 mg/ml bovine serum albumin, 0.1 mg/ml bacitracin (HBB). Then the cells were incubated in 0.2 ml HBB for 1 h at room temperature together with […] [¹²⁵J]-SDF-1 (PerkinElmer, Rodgau, Germany) and varying concentrations of Spiegelmer.
Non-specific binding was determined by adding unlabeled human SDF-1 (R & D Systems, Wiesbaden, Germany) to a final concentration of 0.5 μM to several wells.

T1 sequence (P48061 22-89): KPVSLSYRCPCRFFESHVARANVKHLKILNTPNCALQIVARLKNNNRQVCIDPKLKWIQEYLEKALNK

B1: human CXCR4-receptor (receptor, UniProt P61073 1-352, looked up)
chain: MEGISIYTSDNYTEEMGSGDYDSMKEPCFREENANFNKIFLPTIYSIIFLTGIVGNGLVILVMGYQKKLRSMTDKYRLHLSVADLLFVITLPFWAVDAVANWYFGNFLCKAVHVIYTVNLYSSVLILAFISLDRYLAIVHATNSQRPRKLLAEKVVYVGVWIPALLLTIPDFIFANVSEADDRYICDRFYPNDLWVVVFQFQHIMVGLILPGIVILSCYCIIISKLSHSKGHQKRKALKTTVILILAFFACWLPYYIGISIDSFILLEIIKQGCEFENTVHKWISITEALAFFHCCLNPILYAFLGAKFKTSAQHALTSVSRGSSLKILSKGKRGGHSSVSTESESSSFHSS
notes: whole, on cells; also called SDF-1 receptor
B1: binds.
